What was measured:
[1] = biological target: truncated pre-β-lactamase (E.coli) (UniProt P62593)
[2] = biological target: wild-type TEM pre-β-lactamase (E.coli) (UniProt P62593)
[3] = biological target: pre(A2)-β-lactamase (E. coli) (UniProt P62593)
[4] = biological target: pre(A2d)-β-lactamase (E. coli) (UniProt P62593)
[5] = biological target: pre(A42)-β-lactamase (E. coli) (UniProt P62593)
[6] = biological target: pre(A13i)-β-lactamase (B. subtilis; E. coli) (UniProt P62593); conditions: scale: % of all the
[7] = biological target: pre(A13i)-β-lactamase (B. subtilis; E. coli) (UniProt P62593)
[8] = tested on: E. coli cells containing pSPB plasmids (beta-lactamase with the indicated signal peptide); assay: Ampicillin resistance in E. coli carrying pSPB plasmids (colony formation); assay type: cell-based
Source text: described in Materials and Methods. Resistance to ampicillin was defined
as the maximal concentration of the antibiotic at which 100% of the E.
coli cells could form colonies. Plasmids indicated by pSPA . . . contain
amylase with the indicated signal peptide, plasmids indicated by pSPB . .
. contain lactamase with the indicated signal peptide.

S.typhimurium SPase I (enzyme)
fraction unprocessed truncated (P') lactamase, pulse-chase labeling, samples 15 s after the chase [1]: 60% | fraction unprocessed wildtype (P) lactamase, pulse-chase labeling, samples 15 s after the chase [2]: 16%

E.coli SPase I (signal peptidase I) (from UniProt P00803) (enzyme)
t50, time necessary to process 50% of the precursor, pulse-chase labeling in E.coli C600 [3]: 2.2 min | t50, time necessary to process 50% of the precursor, pulse-chase labeling in E.coli C600 [4]: < 1 min | t50, time necessary to process 50% of the precursor, pulse-chase labeling in E.coli C600 [5]: 15 min | relative amount of mature enzyme, pulse-chase labeling in E.coli C600 [6]: 6 to 7 | fraction unprocessed truncated (P') lactamase, pulse-chase labeling, samples 15 s after the chase [1]: 63% | fraction unprocessed wildtype (P) lactamase, pulse-chase labeling, samples 15 s after the chase [2]: 15%

B. subtilis SPase I (enzyme)
t50, time necessary to obtain equal amounts of the precursor and the mature forms, pulse-chase labeling in B. subtilis DB104 [7]: 6 min

CC1(C)S[C@@H]2[C@H](NC(=O)[C@H](N)c3ccccc3)C(=O)N2[C@H]1C(=O)O [ampicillin]
E. coli amp. resist. (maximal concentration of the antibiotic at which 100% of the E. coli cells could form colonies) ([8]; E. coli containing pSPB-A2): 300 µg/mL | E. coli amp. resist. (maximal concentration of the antibiotic at which 100% of the E. coli cells could form colonies) ([8]; E. coli containing pSPB-A13): 300 µg/mL | E. coli amp. resist. (maximal concentration of the antibiotic at which 100% of the E. coli cells could form colonies) ([8]; E. coli containing pSPB-A13i): 100 µg/mL | E. coli amp. resist. (maximal concentration of the antibiotic at which 100% of the E. coli cells could form colonies) ([8]; E. coli containing pSPB-A42): 20 µg/mL | E. coli amp. resist. (maximal concentration of the antibiotic at which 100% of the E. coli cells could form colonies) ([8]; E. coli containing pSPB-A2d): 500 µg/mL | E. coli amp. resist. (maximal concentration of the antibiotic at which 100% of the E. coli cells could form colonies) ([8]; E. coli containing pSPB-A42d): 100 µg/mL

Source: patent publication US5246838A, “Processing of proteins” (priority 1990, dated 1993)
